Results from patent US20250129174A1 (LTZ THERAPEUTICS, published 2025).

Columns and labels:
[1] = target: T1, human CCR8 (human, UniProt P51685 1-355); assay: flow cytometry on CHO cells expressing human CCR8, MFI of PE
T1 construct: whole, on cells; The construct expressed in the CHO cells is not described further; also called hCCR8; C-C motif chemokine receptor 8
Experimental: Binding abilities of 4-1BB×CCR8 bispecific antibodies to CHO cells expressing human CCR8 were evaluated. About 50,000 CHO cells expressing human CCR8 were incubated with serially diluted antibodies (4-1BB-2×CCR8-2 (LC1) BsAb, 4-1BB-2×CCR8-2 (LC2) BsAb and 4-1BB-2×CCR8-2 (HC) BsAb) in FACS buffer (PBS+0.5% BSA) for 30 minutes on ice. After incubation, cells were washed twice and detected with […] The mean fluorescence intensity (MFI of PE) of each antibody was determined and plotted using GraphPad Prism software (Version 9.4.1; GraphPad Software Inc.). As shown in FIGS. 13A-13B, all the three 4-1BB×CCR8 bispecific antibodies bind to CHO cells expressing human CCR8 very well.

[2] = target: T2, human 4-1BB (human, UniProt Q07011 24-255); assay: flow cytometry on CHO cells expressing human 4-1BB, anti-human IgG PE secondary antibody, percent of positive cells
T2 construct: whole, on cells; The construct expressed in the CHO cells is not described further; also called h4-1BB; CD137
Experimental: Binding abilities of 4-1BB×CCR8 bispecific antibodies (BsAb) to CHO cells expressing human 4-1BB were evaluated. About 50,000 CHO cells expressing human 4-1BB were incubated with serially diluted antibodies (4-1BB-2×CCR8-2 (LC1) BsAb, 4-1BB-2×CCR8-2 (LC2) BsAb, and 4-1BB-2×CCR8-2 (HC) BsAb) in FACS buffer (PBS+0.5% BSA) for 30 minutes on ice. After incubation, cells were washed twice and detected with anti-human IgG PE secondary antibody (Jackson ImmunoResearch, Cat. #: 109-116-170). […] As shown in FIGS. 12A-12B, all the three 4-1BB×CCR8 bispecific antibodies bind to CHO cells expressing human 4-1BB very well.

[3] = target: T1, human CCR8; assay: flow cytometry on CHO cells expressing human CCR8, percent of positive cells
Experimental: Binding abilities of 4-1BB×CCR8 bispecific antibodies to CHO cells expressing human CCR8 were evaluated. About 50,000 CHO cells expressing human CCR8 were incubated with serially diluted antibodies (4-1BB-2×CCR8-2 (LC1) BsAb, 4-1BB-2×CCR8-2 (LC2) BsAb and 4-1BB-2×CCR8-2 (HC) BsAb) in FACS buffer (PBS+0.5% BSA) for 30 minutes on ice. […] As shown in FIGS. 13A-13B, all the three 4-1BB×CCR8 bispecific antibodies bind to CHO cells expressing human CCR8 very well.

T1 sequence (P51685 whole entry): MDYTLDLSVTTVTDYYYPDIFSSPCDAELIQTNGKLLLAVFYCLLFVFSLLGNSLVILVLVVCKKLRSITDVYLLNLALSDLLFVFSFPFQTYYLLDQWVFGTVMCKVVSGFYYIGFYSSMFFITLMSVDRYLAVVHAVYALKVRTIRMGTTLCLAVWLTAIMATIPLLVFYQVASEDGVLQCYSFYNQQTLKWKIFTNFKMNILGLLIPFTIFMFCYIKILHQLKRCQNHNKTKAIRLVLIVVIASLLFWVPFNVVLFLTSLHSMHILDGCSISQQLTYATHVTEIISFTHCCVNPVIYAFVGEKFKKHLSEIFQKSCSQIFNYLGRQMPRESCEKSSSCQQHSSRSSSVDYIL
T2 sequence (Q07011 24-255): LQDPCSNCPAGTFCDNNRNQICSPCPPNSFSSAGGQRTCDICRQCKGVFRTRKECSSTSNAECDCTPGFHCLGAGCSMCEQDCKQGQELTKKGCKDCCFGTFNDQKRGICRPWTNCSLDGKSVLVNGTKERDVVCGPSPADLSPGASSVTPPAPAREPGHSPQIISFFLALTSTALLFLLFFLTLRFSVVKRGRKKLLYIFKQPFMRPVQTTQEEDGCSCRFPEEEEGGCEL

B1: 4-1BB-2×CCR8-2 (HC) BsAb (bispecific antibody, human IgG1, kappa)
heavy: not shown
light: DIVMTQTPLSLSVTPGQPASISCRSSQSLFHSSGNTYLHWYLQKPGQPPQLLIYKVSNRFSGVPDRFSGSGSGTDFTLKISRVEAEDVGVYYCSQSTHVPFTFGQGTKLEIKRTVAAPSVFIFPPSDEQLKSGTASVVCLLNNFYPREAKVQWKVDNALQSGNSQESVTEQDSKDSTYSLSSTLTLSKADYEKHKVYACEVTHQGLSSPVTKSFNRGEC
notes: The light chain is the CCR8-2 kappa light chain; also called 4-1BB-2×CCR8-2 (HC) bispecific antibody
binding result [1]: binds
EC50 (read off the curve) [2]: ~0.7 nM

B2: 4-1BB-2×CCR8-2 (LC1) BsAb (bispecific antibody, human IgG1, kappa)
heavy: not shown
light: DVVLTQSPLSLPVTLGQPASISCRSSQSLLDSDGNTYLYWFQQRPGQSPRRLIYLVSNLGSGVPDRFSGSGSGTDFTLKISRVEAEDVGVYYCMQPTHAPYTFGQGTKLEIKGGGGSGGGGSGGGGSGGGGSEVQLVQSGAEVKKPGSSVKVSCKASDYTFNDYWVSWVRQAPGQGLEWIGEIYPNSGATNFNGKFRGRATLTVDNSASTAYMELSSLRSEDTAVYYCTREYTRDWFAYWGQGTLVTVSSGGGGSGGGGSGGGGSDIVMTQTPLSLSVTPGQPASISCRSSQSLFHSSGNTYLHWYLQKPGQPPQLLIYKVSNRFSGVPDRFSGSGSGTDFTLKISRVEAEDVGVYYCSQSTHVPFTFGQGTKLEIKRTVAAPSVFIFPPSDEQLKSGTASVVCLLNNFYPREAKVQWKVDNALQSGNSQESVTEQDSKDSTYSLSSTLTLSKADYEKHKVYACEVTHQGLSSPVTKSFNRGEC
notes: The light chain is the 4-1BB-2 scFv (VL-linker-VH) joined by a linker to the N-terminus of the CCR8-2 kappa light chain; also called 4-1BB-2×CCR8-2 (LC1) bispecific antibody
EC50 (read off the curve) [1]: ~2 nM
EC50 (read off the curve) [3]: ~0.3 nM
EC50 (read off the curve) [2]: ~0.06 nM

B3: 4-1BB-2×CCR8-2 (LC2) BsAb (bispecific antibody, human IgG1, kappa)
heavy: not shown
light: DIVMTQTPLSLSVTPGQPASISCRSSQSLFHSSGNTYLHWYLQKPGQPPQLLIYKVSNRFSGVPDRFSGSGSGTDFTLKISRVEAEDVGVYYCSQSTHVPFTFGQGTKLEIKRTVAAPSVFIFPPSDEQLKSGTASVVCLLNNFYPREAKVQWKVDNALQSGNSQESVTEQDSKDSTYSLSSTLTLSKADYEKHKVYACEVTHQGLSSPVTKSFNRGECGGGGSGGGGSGGGGSDVVLTQSPLSLPVTLGQPASISCRSSQSLLDSDGNTYLYWFQQRPGQSPRRLIYLVSNLGSGVPDRFSGSGSGTDFTLKISRVEAEDVGVYYCMQPTHAPYTFGQGTKLEIKGGGGSGGGGSGGGGSGGGGSEVQLVQSGAEVKKPGSSVKVSCKASDYTFNDYWVSWVRQAPGQGLEWIGEIYPNSGATNFNGKFRGRATLTVDNSASTAYMELSSLRSEDTAVYYCTREYTRDWFAYWGQGTLVTVSS
notes: The light chain is the CCR8-2 kappa light chain with the 4-1BB-2 scFv (VL-linker-VH) joined by a linker to its C-terminus; also called 4-1BB-2×CCR8-2 (LC2) bispecific antibody
binding result [1]: binds
EC50 (read off the curve) [2]: ~0.7 nM
